Substrate: CC(=O)OCC(C)OC(C)=O
Test: purified protein
Assay type: biochemical, Mycolicibacterium smegmatis
Conditions: free enzyme; 200 mM H2O2 constant, PGD 3-100 mM, PBS; apparent (two-substrate reaction)

B1: AcT (perhydrolase S54V) (Mycolicibacterium smegmatis MC2 155; S54V) (protein)
chain: MAKRILCFGDSLTWGWVPVEDGAPTERFAPDVRWTGVLAQQLGADFEVIEEGLVARTTNIDDPTDPRLNGASYLPSCLATHLPLDLVIIMLGTNDTKAYFRRTPLDIALGMSVLVTQVLTSAGGVGTTYPAPKVLVVSPPPLAPMPHPWFQLIFEGGEQKTTELARVYSALASFMKVPFFDAGSVISTDGVDGIHFTEANNRDLGVALAEQVRSLL
notes: synthetic gene in pET28a, N-terminal His8 tag and thrombin site (LVPRGS), expressed in E. coli BL21(DE3), Ni-NTA purified; MW 180 kDa printed; S54V printed in the introduction only
**Q.** For B1, which Km is on record?
**A.** Its Km is 13 mM.

**Q.** And the kcat?
**A.** Its kcat is 4700 s⁻¹.

Reference: paper PMC8203652, “Facile fabrication of antibacterial and antiviral perhydrolase-polydopamine composite coatings” (Scientific Reports, 2021)
